Residue numbers refer to the chain shown, from its start.
T1: recombinant human TIGIT (human, UniProt Q495A1 22-141, limits assumed)
T1 construct: recombinant human TIGIT used in Carterra SPR; also called hTIGIT
T1 sequence (looked up): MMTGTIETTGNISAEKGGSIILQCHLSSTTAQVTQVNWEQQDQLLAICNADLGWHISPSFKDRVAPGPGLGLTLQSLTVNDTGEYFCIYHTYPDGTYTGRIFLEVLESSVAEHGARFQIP

B1: TIGIT-SC149 (Fc fusion)
VHH: EVQLVESGGGLVQPGGSLRLSCAASGFTLENNMMGWFRQAPGKEREFVAAISRSGTLKAYADSVKGRFTISADNSKNTAYLQMNSLKPEDTAVYYCAKVQGPYCSGGSCYLYTFDLWGQGTLVTVSS
notes: VHH-Fc fusion in assay
B2: TIGIT-SC131 (Fc fusion)
VHH: EVQLVESGGGLVQPGGSLRLSCAASGDTSEIYDMGWFRQAPGKEREFVAITWNSGRIGSNGFATYADSVKGRFTISADNSKNTAYLQMNSLKPEDTAVYYCARWAVGQAFDLWGQGTLVTVSS
notes: VHH-Fc fusion in assay
B3: TIGIT-SC44 (Fc fusion)
VHH: EVQLVESGGGLVQPGGSLRLSCAASGSIFGLGAMGWFRQAPGKERELVAITWGGSTTLYADSVKGRFTISADNSKNTAYLQMNSLKPEDTAVYYCATDQGQWLFDFWGQGTLVTVSS
notes: VHH-Fc fusion in assay
B4: TIGIT-SC66 (Fc fusion)
VHH: EVQLVESGGGLVQPGGSLRLSCAASGTTFSSAAMGWFRQAPGKEREWVASVLRGGYTWYADSVKGRFTISADNSKNTAYLQMNSLKPEDTAVYYCVTDPRQWLGHDYWGQGTLVTVSS
notes: VHH-Fc fusion in assay
B5: TIGIT-SC129 (Fc fusion)
VHH: EVQLVESGGGLVQPGGSLRLSCAASGPTLGSYVMGWFRQAPGKEREFVAAISGSGDDTYYADSVKGRFTISADNSKNTAYLQMNSLKPEDTAVYYCARWREFPGYYFAIDVWGQGTLVTVSS
notes: VHH-Fc fusion in assay
B6: TIGIT-SC130 (Fc fusion)
VHH: B5 VHH with M34T, G55S
notes: VHH-Fc fusion in assay
B7: TIGIT-SC15 (Fc fusion)
VHH: EVQLVESGGGLVQPGGSLRLSCAASGSILSFNHIGWFRQAPGKEREGVAWIARYDGSTLYADSVKGRFTISADNSKNTAYLQMNSLKPEDTAVYYCARARGGYVDYWGQGTLVTVSS
notes: VHH-Fc fusion in assay
B8: TIGIT-SC132 (Fc fusion)
VHH: EVQLVESGGGLVQPGGSLRLSCAASGFTLENNMMGWFRQAPGKEREFVAAISASGTLRAYADSVKGRFTISADNSKNTAYLQMNSLKPEDTAVYYCATWRPNRGRYYDWYFDLWGQGTLVTVSS
notes: VHH-Fc fusion in assay
B9: TIGIT-SC16 (Fc fusion)
VHH: EVQLVESGGGLVQPGGSLRLSCAASGTTFSSAAMGWFRQAPGKEREWVASVLRGGYTWYADSVKGRFTISADNSKNTAYLQMNSLKPEDTAVYYCARDPVELGDYWGQGTLVTVSS
notes: VHH-Fc fusion in assay
B10: TIGIT-SC144 (Fc fusion)
VHH: EVQLVESGGGLVQPGGSLRLSCAASGFTLENNMMGWFRQAPGKEREFVAAISPSGTLRAYADSVKGRFTISADNSKNTAYLQMNSLKPEDTAVYYCAGIHDSGVPLGNWGQGTLVTVSS
notes: VHH-Fc fusion in assay
B11: TIGIT-SC90 (Fc fusion)
VHH: EVQLVESGGGLVQPGGSLRLSCAASGDTFSSKAMGWFRQAPGKEREFVAAIRWSVSSTYYADSVKGRFTISADNSKNTAYLQMNSLKPEDTAVYYCARWTRGLVSGTYYYYMDVWGQGTLVTVSS
notes: VHH-Fc fusion in assay
B12: TIGIT-SC145 (Fc fusion)
VHH: EVQLVESGGGLVQPGGSLRLSCAASGNTFSGGFTLGYYVMGWFRQAPGKEREFVAAISRSGTLKAYADGVKGRFTISADNSKNTAYLQMNSLKPEDTAVYYCARVEAYGDPLGYWGQGTLVTVSS
notes: VHH-Fc fusion in assay
B13: TIGIT-SC139 (Fc fusion)
VHH: EVQLVESGGGLVQPGGSLRLSCAASGFTLENNMMGWFRQAPGKEREFVAAISRSGTLKAYADSVKGRFTISADNSKNTAYLRMNSLKPEDTAVYYCAGLTSGGAFSYYWGQGTLVTVSS
notes: VHH-Fc fusion in assay
B14: TIGIT-SC161 (Fc fusion)
VHH: EVQLVESGGGLVQPGGSLRLSCAASGFTFSPSWMGWFRQAPGKEREWVASVLRGGYTWYADSVKGRFTISADNSKNTAYLQMNSLKPEDTAVYYCTTDRAIGVRPLFDHWGQGTLVTVSS
notes: VHH-Fc fusion in assay
B15: TIGIT-SC162 (Fc fusion)
VHH: B14 VHH with F27N, P31G, S32G, W33F
notes: VHH-Fc fusion in assay
B16: TIGIT-SC102 (Fc fusion)
VHH: EVQLVESGGGLVQPGGSLRLSCAASGSTFSKHHAMGWFRQAPGKEREFVAAIRWSGGNTYYADSVKGRFTISADNSKNTAYLQMNSLKPEDTAVYYCARWYSSSGDYYYMDVWGQGTLVTVSS
notes: VHH-Fc fusion in assay
B17: TIGIT-SC30 (Fc fusion)
VHH: EVQLVESGGGLVQPGGSLRLSCAASGRSFSSDWIGWFRQAPGKERELVAAIDWSGGSALYADSVKGRFTISADNSKNTAYLQMNSLKPEDTAVYYCARVNWNNVGWFDPWGQGTLVTVSS
notes: VHH-Fc fusion in assay
B18: TIGIT-SC72 (Fc fusion)
VHH: EVQLVESGGGLVQPGGSLRLSCAASGGLTFSSYAMGWFRQAPGKEREFVAAISWSGGRTYYADSVKGRFTISADNSKNTAYLQMNSLKPEDTAVYYCARWSAKRHSDTMTYYMDVWGQGTLVTVSS
notes: VHH-Fc fusion in assay
B19: TIGIT-SC53 (Fc fusion)
VHH: EVQLVESGGGLVQPGGSLRLSCAASGFTFSPSWMGWFRQAPGKEREWVASVLRGGYTWYADSVKGRFTISADNSKNTAYLQMNSLKPEDTAVYYCARESTIVGAIDSWGQGTLVTVSS
notes: VHH-Fc fusion in assay
B20: TIGIT-SC133 (Fc fusion)
VHH: EVQLVESGGGLVQPGGSLRLSCAASGFTLENNMMGWFRQAPGKEREFVAAISASGTLRAYADSVKGRFTISADNSKNTAYLQMNSLKPEDTAVYYCACGRVSGAFIYFDYWGQGTLVTVSS
notes: VHH-Fc fusion in assay
B21: TIGIT-SC142 (Fc fusion)
VHH: EVQLVESGGGLVQPGGSLRLSCAASGFSFDRWAMGWFRQAPGKEREFVAAIGWSGNLKAYADSVKGRFTISADNSKNTAYLQMNSLKPEDTAVYYCASGDGYSMDYFDPWGQGTLVTVSS
notes: VHH-Fc fusion in assay
B22: TIGIT-SC128 (Fc fusion)
VHH: EVQLVESGGGLVQPGGSLRLSCAASGFIGNYHAMGWFRQAPGKEREFVARITSGGSTYYADSVKGRFTISADNSKNTAYLQMNSLKPEDTAVYYCGGFGNWGQGTLVTVSS
notes: VHH-Fc fusion in assay
B23: TIGIT-SC204 (Fc fusion)
VHH: EVQLVESGGGLVQPGGSLRLSCAASGFLFNSYWMVWFRQAPGKEREFVAAIWRSGTLKAYADSVKGRFTISADNSKNTAYLQMNSLKPEDTAVYYCAADVNYGSTWRNWGQGTLVTVSS
notes: VHH-Fc fusion in assay
B24: TIGIT-SC5 (Fc fusion)
VHH: EVQLVESGGGLVQPGGSLRLSCAASGFAFGDSWMGWFRQAPGKEREWVASVLRGGYTWYADSVKGRFTISADNSKNTAYLQMNSLKPEDTAVYYCARESEGWFDPWGQGTLVTVSS
notes: VHH-Fc fusion in assay
B25: TIGIT-SC183 (Fc fusion)
VHH: B24 VHH with R97K, E98D, S99R, E100S, G101Y, W102S, P105Y
notes: VHH-Fc fusion in assay
B26: TIGIT-SC29 (Fc fusion)
VHH: EVQLVESGGGLVQPGGSLRLSCAASGFTLENNMMGWFRQAPGKERELVAAIDWSGGSTIYADSVKGRFTISADNSKNTAYLQMNSLKPEDTAVYYCARGHDYGDYIAYWGQGTLVTVSS
notes: VHH-Fc fusion in assay
B27: TIGIT-SC164 (Fc fusion)
VHH: EVQLVESGGGLVQPGGSLRLSCAASGFTFDRSWMGWFRQAPGKEREFVASVLRGGYTWYADSVKGRFTISADNSKNTAYLQMNSLKPEDTAVYYCTTEGSGWRNWGQGTLVTVSS
notes: VHH-Fc fusion in assay
B28: TIGIT-SC65 (Fc fusion)
VHH: EVQLVESGGGLVQPGGSLRLSCAASGFTFGNYDMGWFRQAPGKEREFVAAITGSGRSTYYADSVKGRFTISADNSKNTAYLQMNSLKPEDTAVYYCARGRIAASGTKVYWYFDLWGQGTLVTVSS
notes: VHH-Fc fusion in assay
B29: TIGIT-SC182 (Fc fusion)
VHH: EVQLVESGGGLVQPGGSLRLSCAASGFTFSSSSMGWFRQAPGKEREFVAAINWSGGSTSYADSVKGRFTISADNSKNTAYLQMNSPKPEDTAVYYCAKDRSYSFDYWGQGTLVTVSS
notes: VHH-Fc fusion in assay
B30: TIGIT-SC85 (Fc fusion)
VHH: EVQLVESGGGLVQPGGSLRLSCAASGRTFSPYTMGWFRQAPGKEREWVAGISQSGGSTAYADSVKGRFTISADNSKNTAYLQMNSLKPEDTAVYYCARDLNAMGDAYDIWGQGTLVTVSS
notes: VHH-Fc fusion in assay

target: T1, recombinant human TIGIT; assay: SPR Carterra, average
Description: Binding affinities of VHH-Fc proteins to recombinant human TIGIT were measured by SPR using a Carterra instrument (Table 10A). […] Average values reported from measurements from 1-2 samples.

Row | Kd [nM] | koff [s⁻¹] | kon [M⁻¹ s⁻¹] | Binder
1 | 35 | 0.0043 | 123000 | B1
2 | 41 | 0.0278 | 677000 | B2
3 | 35.1 | 0.0124 | 354000 | B3
4 | 39.1 | 0.00116 | 29700 | B4
5 | 43.9 | 0.00191 | 43700 | B5
6 | 73 | 0.00526 | 72000 | B6
7 | 62 | 0.00814 | 143000 | B7
8 | 45.6 | 0.00347 | 197000 | B8
9 | 52.6 | 0.00387 | 80100 | B9
10 | 41 | 0.00574 | 140000 | B10
11 | 59.5 | 0.00301 | 50500 | B11
12 | 47.9 | 0.0108 | 226000 | B12
13 | 55.2 | 0.00778 | 141000 | B13
14 | 33.9 | 0.00146 | 57100 | B14
15 | 126 | 0.0203 | 622000 | B15
16 | 33.5 | 0.00146 | 43500 | B16
17 | 67.3 | 0.0155 | 231000 | B17
18 | 48.1 | 0.00168 | 34900 | B18
19 | 55.4 | 0.0027 | 48800 | B19
20 | 41.9 | 0.00561 | 158000 | B20
21 | 66.5 | 0.0213 | 320000 | B21
22 | 45.4 | 0.00708 | 158000 | B22
23 | 66.7 | 0.00339 | 50800 | B23
24 | 51.4 | 0.00216 | 42000 | B24
25 | 55.2 | 0.00495 | 90400 | B25
26 | 59.2 | 0.00287 | 48700 | B26
27 | 55.7 | 0.00258 | 52800 | B27
28 | 44.9 | 0.0249 | 1.09e+06 | B28
29 | 60.6 | 0.00722 | 119000 | B29
30 | 44.6 | 0.000599 | 8760 | B30
